Measured values reported in patent publication US20240376198A1 (INHIBRX, published 2024).
Residue numbers refer to the chain shown, from its start. Names may count otherwise. Read-outs that look alike come from different tables or passages of the source. Blank lines part the entries; values can stand above or below the binder they belong to.

Columns and labels:
IL-2 receptor = IL-2 receptor (human); experiment: cell-based or functional assay
human NKp46 [1] = molecular target: T1, human NKp46 (human, UniProt O76036 22-304); experiment: flow cytometry, HEK293F cells transfected with human NKp46
T1 construct: also called CD335; NCR1
T1 sequence (O76036 22-304 Q82K): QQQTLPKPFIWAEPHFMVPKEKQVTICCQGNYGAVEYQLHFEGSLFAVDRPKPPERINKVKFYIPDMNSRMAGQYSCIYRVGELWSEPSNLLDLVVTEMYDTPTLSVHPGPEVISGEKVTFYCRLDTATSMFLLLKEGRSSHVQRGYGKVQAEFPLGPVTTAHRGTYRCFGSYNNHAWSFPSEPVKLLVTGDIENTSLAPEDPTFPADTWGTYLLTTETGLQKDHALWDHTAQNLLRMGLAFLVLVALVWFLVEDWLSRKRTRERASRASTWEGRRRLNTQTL
Protocol: (§1) Binding of NKp46-binding polypeptides formatted as VHH-Fc fusion proteins was assessed by flow cytometry. An IgG1-Fc lacking a hinge, or a homodimeric Fc (FIG. 1I-1J) was used (the Fc lacking a hinge is annotated as Fc*). HEK293F cells were transiently transfected with a plasmid encoding full-length human NKp46, cynomolgus NKp46, or mouse NKp46, followed by an IRES and GFP. Transfected cells expressing NKp46 and GFP were used to measure binding of the polypeptides. The transfected cells were plated in a 96-well plate at 30,000 cells per well in FACS buffer (PBS, 1% BSA, 0.1% NaN₃, pH 7.4). Untransfected HEK293F cells were used as a NKp46-negative control and plated at 30,000 cells per well in a separate plate. Test polypeptides were then diluted to two times the final concentration of 1000 nM, and a 3-, 4-, or 5-fold, serial dilution was made. A final column was left with only FACS buffer as a secondary-only control. Test article dilutions were added to an equal volume of cells, and assay plates were incubated for 30 minutes at 4° C. After washing twice with 150 μL. of FACS buffer per well, the cells were resuspended in FACS buffer with α-hFc-647 secondary diluted 1:1000-2000. Assay plates were then left to incubate at 4° C. for 20-30 minutes. After one additional wash with 150 μL of FACS buffer, bound antibody was detected by flow cytometry. Flow cytometric detection was performed on an Intellicyt iQue Plus or Accuri iQue. NKp46 transfected cells were gated on as GFP positive, and polypeptide binding was measured as median fluorescence at 647 nm.

human NKp46 [2] = molecular target: T1, human NKp46; experiment: flow cytometry on HEK-293F cells transfected with full-length human NKp46, bivalent VHH with homodimeric Fc, anti-hFc-647 secondary
Protocol: as §1, with “After washing twice with 150 μL. of FACS buffer per well, the cells were resuspended in FACS buffer with α-hFc-647 secondary diluted 1:1000-2000. Assay plates were then left to incubate at 4° C. for 20-30 minutes.” left out, “Flow cytometric detection was performed on an Intellicyt iQue Plus or Accuri iQue.” left out

cynomolgus NKp46 [3] = molecular target: T2, cynomolgus NKp46 (cynomolgus monkey, UniProt Q95JB9 22-306); experiment: flow cytometry, HEK293F cells transfected with cyno NKp46
T2 construct: also called cyno NKp46; cynomolgus monkey NKp46
T2 sequence (Q95JB9 22-306 limits assumed): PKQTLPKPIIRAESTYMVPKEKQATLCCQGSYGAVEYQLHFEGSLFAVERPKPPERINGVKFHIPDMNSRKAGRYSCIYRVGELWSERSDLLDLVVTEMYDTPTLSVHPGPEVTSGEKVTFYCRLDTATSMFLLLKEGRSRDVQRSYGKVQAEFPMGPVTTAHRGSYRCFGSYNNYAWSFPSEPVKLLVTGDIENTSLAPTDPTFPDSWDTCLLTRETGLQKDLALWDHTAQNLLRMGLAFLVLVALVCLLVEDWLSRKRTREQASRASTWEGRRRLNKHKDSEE
Protocol: as §1

cynomolgus NKp46 [4] = molecular target: T2, cynomolgus NKp46; experiment: as above; remark: listed apart in the source
Protocol: as §1

human NKp46 [5] = molecular target: T1, human NKp46; experiment: flow cytometry, HEK293F cells transfected with human NKp46; remark: listed apart in the source
Protocol: as §1

mouse NKp46 [6] = molecular target: T3, mouse NKp46 (mouse, UniProt Q8C567 17-325); experiment: flow cytometry, HEK293F cells transfected with mouse NKp46
T3 construct: whole, on cells
T3 sequence (looked up): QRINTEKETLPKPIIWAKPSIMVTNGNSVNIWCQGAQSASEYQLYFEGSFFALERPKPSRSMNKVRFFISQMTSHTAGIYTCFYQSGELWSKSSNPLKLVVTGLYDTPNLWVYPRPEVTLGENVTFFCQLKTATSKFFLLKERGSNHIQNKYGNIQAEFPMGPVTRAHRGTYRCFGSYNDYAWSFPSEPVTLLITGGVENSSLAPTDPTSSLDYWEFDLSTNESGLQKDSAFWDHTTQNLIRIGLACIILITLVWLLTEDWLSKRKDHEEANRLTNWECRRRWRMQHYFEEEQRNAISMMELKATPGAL
Protocol: as §1

human NKp46 [7] = molecular target: T1, human NKp46; experiment: flow cytometry, HEK293F cells transfected with human NKp46; Table 3 experiment; HEK-293 transfected with human NKp46
Protocol: as §1, with “After washing twice with 150 μL. of FACS buffer per well, the cells were resuspended in FACS buffer with α-hFc-647 secondary diluted 1:1000-2000. Assay plates were then left to incubate at 4° C. for 20-30 minutes.” left out, “Flow cytometric detection was performed on an Intellicyt iQue Plus or Accuri iQue.” left out

mouse NKp46 [8] = molecular target: T3, mouse NKp46; experiment: flow cytometry, HEK293F cells transfected with mouse NKp46; remark: listed apart in the source
Protocol: as §1

mouse NKp46 [9] = molecular target: T3, mouse NKp46; experiment: flow cytometry on HEK-293F cells transfected with full-length mouse NKp46, anti-hFc-647 secondary
Protocol: as §1, with “After washing twice with 150 μL. of FACS buffer per well, the cells were resuspended in FACS buffer with α-hFc-647 secondary diluted 1:1000-2000. Assay plates were then left to incubate at 4° C. for 20-30 minutes.” left out, “Flow cytometric detection was performed on an Intellicyt iQue Plus or Accuri iQue.” left out

pSTAT5 EC50 on CD56brightCD16- NK cells (IL-2 receptor): < 80 pM
pSTAT5 EC50 on CD56dimCD16+ NK cells and total NK cells (IL-2 receptor): < 0.4 nM
B1: hz5D7v12-Fc xELL-Hole; and hz5D7v12-Fc xELL-Knob-IL2-T3A-H16A-E61R-P65R-D84Y-C125S (cx10454) (Fc fusion)
chain 1: EVQLVESGGGEVQPGGSLRLSCAASGRTFASAAMGWFRQAPGKEREFVAAISRSDDTYYAESVKGRFTISRDNAKNTVYLQMSSLRAEDTAVYYCAAVVPTYGSNIYVHSAAYNYWGQGTLVTVKPGGGGDKTHTCPPCPAPGGPSVFLFPPKPKDTLMISRTPEVTCVVVDVSHEDPEVKFNWYVDGVEVHNAKTKPREEQYNSTYRVVSVLTVLHQDWLNGKEYKCKVSNKALPAPIEKTISKAKGQPREPQVYTLPPCRDELTKNQVSLWCLVKGFYPSDIAVEWESNGQPENNYKTTPPVLDSDGSFFLYSKLTVDKSRWQQGNVFSCSVMHEALHNHYTQKSLSLSPGGSGGSAPASSSTKKTQLQLEALLLDLQMILNGINNYKNPKLTRMLTFKFYMPKKATELKHLQCLERELKRLEEVLNLAQSKNFHLRPRYLISNINVIVLELKGSETTFMCEYADETATIVEFLNRWITFSQSIISTLT
chain 2: EVQLVESGGGEVQPGGSLRLSCAASGRTFASAAMGWFRQAPGKEREFVAAISRSDDTYYAESVKGRFTISRDNAKNTVYLQMSSLRAEDTAVYYCAAVVPTYGSNIYVHSAAYNYWGQGTLVTVKPGGGGDKTHTCPPCPAPGGPSVFLFPPKPKDTLMISRTPEVTCVVVDVSHEDPEVKFNWYVDGVEVHNAKTKPREEQYNSTYRVVSVLTVLHQDWLNGKEYKCKVSNKALPAPIEKTISKAKGQPREPQVCTLPPSRDELTKNQVSLSCAVKGFYPSDIAVEWESNGQPENNYKTTPPVLDSDGSFFLVSKLTVDKSRWQQGNVFSCSVMHEALHNRYTQKSLSLSPG

pSTAT5 EC50 on CD56brightCD16- NK cells (IL-2 receptor): < 80 pM
pSTAT5 EC50 on CD56dimCD16+ NK cells and total NK cells (IL-2 receptor): < 0.4 nM
B2: hz5D7v17-Fc xELL-Hole; and hz5D7v17-Fc xELL-Knob-IL2-T3A-H16A-E61R-P65R-D84Y-C125S (cx11314) (Fc fusion)
chain 1: B1 chain 1 with K125R
chain 2: EVQLVESGGGEVQPGGSLRLSCAASGRTFASAAMGWFRQAPGKEREFVAAISRSDDTYYAESVKGRFTISRDNAKNTVYLQMSSLRAEDTAVYYCAAVVPTYGSNIYVHSAAYNYWGQGTLVTVRPGGGGDKTHTCPPCPAPGGPSVFLFPPKPKDTLMISRTPEVTCVVVDVSHEDPEVKFNWYVDGVEVHNAKTKPREEQYNSTYRVVSVLTVLHQDWLNGKEYKCKVSNKALPAPIEKTISKAKGQPREPQVCTLPPSRDELTKNQVSLSCAVKGFYPSDIAVEWESNGQPENNYKTTPPVLDSDGSFFLVSKLTVDKSRWQQGNVFSCSVMHEALHNRYTQKSLSLSPGK

Kd (human NKp46 [1]): 295 pM
EC50 (read off the curve) (human NKp46 [2]): ~300 pM
B3: NKp46-hz5D7v17-Fc (Fc fusion)
chain: EVQLVESGGGEVQPGGSLRLSCAASGRTFASAAMGWFRQAPGKEREFVAAISRSDDTYYAESVKGRFTISRDNAKNTVYLQMSSLRAEDTAVYYCAAVVPTYGSNIYVHSAAYNYWGQGTLVTVRPDKTHTCPPCPAPGGPSVFLFPPKPKDTLMISRTPEVTCVVVDVSHEDPEVKFNWYVDGVEVHNAKTKPREEQYNSTYRVVSVLTVLHQDWLNGKEYKCKVSNKALPAPIEKTISKAKGQPREPQVYTLPPSRDELTKNQVSLTCLVKGFYPSDIAVEWESNGQPENNYKTTPPVLDSDGSFFLYSKLTVDKSRWQQGNVFSCSVMHEALHNHYTQKSLSLSPG

Bmax (MFI) (cynomolgus NKp46 [3]): 16400 MFI
Kd (cynomolgus NKp46 [3]): 428 pM
Bmax (MFI) (human NKp46 [5]): 143000 MFI
Kd (human NKp46 [5]): 237 pM
Bmax (MFI) (mouse NKp46 [8]): 34300 MFI
Kd (mouse NKp46 [8]): 729 pM
B7: NKp46-hz5D7v15-Fc* (Fc fusion)
chain: EVQLVESGGGEVQPGGSLRLSCAASGRTFASAAMGWFRQAPGKEREFVAAISRSDDTYYAESVKGRFTISRDNAKNTVYLQMSSLRAEDTAVYYCAAVVPTYGNAIYVHSAAYNYWGQGTLVTVKPGGGGPSVFLFPPKPKDTLMISRTPEVTCVVVDVSHEDPEVKFNWYVDGVEVHNAKTKPREEQYNSTYRVVSVLTVLHQDWLNGKEYKCKVSNKALPAPIEKTISKAKGQPREPQVYTLPPSRDELTKNQVSLTCLVKGFYPSDIAVEWESNGQPENNYKTTPPVLDSDGSFFLYSKLTVDKSRWQQGNVFSCSVMHEALHNHYTQKSLSLSPG
notes: VHH-Fc fusion with an IgG1 Fc lacking a hinge (Fc*)

The remaining lines, values behind:

B4: NKp46-hz5D7v3-Fc* (Fc fusion)
chain: B7 chain with A105N
notes: VHH-Fc fusion with an IgG1 Fc lacking a hinge (Fc*); also called NKp46-bz5D7v3-Fc*
Bmax (MFI) (human NKp46 [1]): 1.27e+06 MFI
Bmax (MFI) (cynomolgus NKp46 [3]): 19800 MFI
Kd (cynomolgus NKp46 [3]): 773 pM
Bmax (MFI) (cynomolgus NKp46 [4]): 51800 MFI
Kd (cynomolgus NKp46 [4]): 726 pM
Bmax (MFI) (human NKp46 [5]): 149000 MFI
Kd (human NKp46 [5]): 177 pM
Bmax (MFI) (mouse NKp46 [6]): 1.17e+06 MFI
Kd (mouse NKp46 [6]): 685 pM
Kd (human NKp46 [7]): 511 pM
Bmax (MFI) (mouse NKp46 [8]): 56500 MFI
Kd (mouse NKp46 [8]): 313 pM

B5: NKp46-hz5D7v14-Fc* (Fc fusion)
chain: B7 chain with N104S, A105S
notes: as for B7
Bmax (MFI) (cynomolgus NKp46 [3]): 14300 MFI
Kd (cynomolgus NKp46 [3]): 252 pM
Bmax (MFI) (human NKp46 [5]): 138000 MFI
Kd (human NKp46 [5]): 158 pM
Bmax (MFI) (mouse NKp46 [8]): 11300 MFI
Kd (mouse NKp46 [8]): 6510 pM
EC50 (read off the curve) (mouse NKp46 [9]): ~8000 pM

B6: NKp46-hz5D7v11-Fc* (Fc fusion)
chain: B7 chain with E61D, N104S, A105N, H109Y
notes: as for B7
Bmax (MFI) (human NKp46 [1]): 1.05e+06 MFI
Kd (human NKp46 [1]): 189 pM
Bmax (MFI) (cynomolgus NKp46 [4]): 52300 MFI
Kd (cynomolgus NKp46 [4]): 1840 pM
Bmax (MFI) (mouse NKp46 [6]): 723000 MFI
Kd (mouse NKp46 [6]): 1700 pM
EC50 (read off the curve) (mouse NKp46 [9]): ~2000 pM

B8: NKp46-hz5D7v13-Fc* (Fc fusion)
chain: B7 chain with A105T
notes: as for B7
Bmax (MFI) (cynomolgus NKp46 [3]): 18800 MFI
Kd (cynomolgus NKp46 [3]): 748 pM
Bmax (MFI) (human NKp46 [5]): 150000 MFI
Kd (human NKp46 [5]): 234 pM
Bmax (MFI) (mouse NKp46 [8]): 38100 MFI
Kd (mouse NKp46 [8]): 604 pM

B9: NKp46-hz5D7v12-Fc* (Fc fusion)
chain: B7 chain with N104S, A105N
notes: as for B7
Bmax (MFI) (cynomolgus NKp46 [3]): 17900 MFI
Kd (cynomolgus NKp46 [3]): 455 pM
Bmax (MFI) (human NKp46 [5]): 149000 MFI
Kd (human NKp46 [5]): 140 pM
Bmax (MFI) (mouse NKp46 [8]): 49300 MFI
Kd (mouse NKp46 [8]): 513 pM
